According to US20230134571A1 (INTERNATIONAL AIDS VACCINE INITIATIVE, published 2023):

Assays:
Experiment in all cases: cell-based or functional assay
[1] = biological target: HIV Env, isolate 3817.v2.c59 (HIV)
HIV Env, isolate CNE52 = HIV Env, isolate CNE52 (HIV)
[2] = biological target: HIV Env, isolate 1054_07_TC4_1499 (HIV)
[3] = biological target: HIV Env, isolate Ce2010_F5 (HIV)
[4] = biological target: HIV Env, isolate 62357_14_D3_4589 (HIV)
[5] = biological target: HIV Env, isolate ZM135M.PL10a (HIV)
[6] = biological target: HIV Env, isolate SC05_8C11_2344 (HIV)
[7] = biological target: HIV Env, isolate Ce703010054_2A2 (HIV)
[8] = biological target: HIV Env, isolate ZM214M.PL15 (HIV)
HIV Env, isolate CNE53 = HIV Env, isolate CNE53 (HIV)
HIV Env, isolate CNE17 = HIV Env, isolate CNE17 (HIV)
HIV Env, isolate 6535.3 = HIV Env, isolate 6535.3 (HIV)
[9] = biological target: HIV Env, isolate Ce704809221_1B3 (HIV)

Binder	IC80 (µg/ml) with constrains [1]	IC80 (µg/ml) with constrains (HIV Env, isolate CNE52)	IC80 (µg/ml) with constrains [2]	IC80 (µg/ml) with constrains [3]	IC80 (µg/ml) with constrains [4]	IC80 (µg/ml) with constrains [5]	IC80 (µg/ml) with constrains [6]	IC80 (µg/ml) with constrains [7]	IC80 (µg/ml) with constrains [8]	IC80 (µg/ml) with constrains (HIV Env, isolate CNE53)	IC80 (µg/ml) with constrains (HIV Env, isolate CNE17)	IC80 (µg/ml) with constrains (HIV Env, isolate 6535.3)	IC80 (µg/ml) with constrains [9]
ePGDM9 (antibody, V domains shown) VH: QAQLVQSGPEVRKPGTSVKVSCKNPGNTLTTYDLHWVRQVPGQGLQWMGWISHEGDKKVIVERFKAKVTIDWDRSTNTAYLQLSGLTSEDTAVYYCAKGSKHRLRDYALYDEDGALNWAVDVDYLANLEFWGQGTAVTVSS VL: DIVLTQSPLSLSVTPGESASISCKSSQSLIHGDRNNYLAWYVQKPGRSPQLLIDLASERASGVPDRFSGSGSRKDFTLKISRVETEDVGTYYCMQGRESPWTFGQGTKVDIK	0.64 µg/mL	7.39 µg/mL	> 100 µg/mL	> 100 µg/mL	38 µg/mL	> 100 µg/mL	4.25 µg/mL	0.032 µg/mL	> 100 µg/mL	0.029 µg/mL	0.01 µg/mL	> 100 µg/mL	0.539 µg/mL
ePGDM5 (antibody, V domains shown) VH: QAQLVQSGPEVRKPGTSVKVSCKNPGNTLTTYDLHWVRQVPGQGLQWMGWISHEGDKKVIVERFKAKVTIDWDRSTNTAYLQLSGLTSEDTAVYYCAKGSKHRLRDYALYDEDGALNWAVDVDYLANLEFWGQGTAVTVSS VL: DFVLTQSPLSLSVTPGESASISCKSDHSLQHGDRNNYLAWYVQKPGRSPQLLIDLASERASGVPDRFSGSGSRKDFTLKIDRVEAEDVGTYYCMQGRESPWTFGQGTKVDIK	0.929 µg/mL	24.6 µg/mL	> 100 µg/mL	> 100 µg/mL	39.9 µg/mL	> 100 µg/mL	14.5 µg/mL	0.034 µg/mL	> 100 µg/mL	0.081 µg/mL	0.028 µg/mL	> 100 µg/mL	0.749 µg/mL
PGDM1400 (antibody, V domains shown) VH: QVHLTQSGPEVRKPGTSVKVSCKAPGNTLKTYDLHWVRSVPGQGLQWMGWISHEGDKKVIVERFKAKVTIDWDRSTNTAYLQLSGLTSGDTAVYYCAKGSKHRLRDYALYDDDGALNWAVDVDYLSNLEFWGQGTAVTVSS VL: DFVLTQSPHSLSVTPGESASISCKSSHSLIHGDRNNYLAWYVQKPGRSPQLLIYLASSRASGVPDRFSGSGSDKDFTLKISRVETEDVGTYYCMQGRESPWTFGQGTKVDIK	> 100 µg/mL	> 100 µg/mL	> 100 µg/mL	> 100 µg/mL	> 100 µg/mL	> 100 µg/mL	17.8 µg/mL	0.057 µg/mL	> 100 µg/mL	0.105 µg/mL	0.018 µg/mL	> 100 µg/mL	1.28 µg/mL
ePGDM13 (antibody, V domains shown) VH: QAQLVQSGPEVRKPGTSVKVSCKNPGNTLTTYDLHWVRQVPGQGLQWMGWISHEGDKKVIVERFKAKVTIDWDRSTNTAYLQLSGLTSEDTAVYYCAKGSKHRLRDYALYDEDGALNWAVDVDYLANLEFWGQGTAVTVSS VL: DIVLTQSPLSLSVTPGESASISCKSSHSLQHGDRNNYLAWYVQKPGRSPQLLLDLASERASGVPDRFSGSGSEKDFTLKISRVETEDVGTYYCMQGRESPWTFGQGTKVDIK	55.9 µg/mL	11.3 µg/mL	> 100 µg/mL	> 100 µg/mL	69.5 µg/mL	> 100 µg/mL	9.44 µg/mL	0.031 µg/mL	> 100 µg/mL	0.059 µg/mL	0.031 µg/mL	> 100 µg/mL	1.36 µg/mL
